A short description of the data set: protease stability score; higher = more stable; yeast display proteolysis, trypsin and chymotrypsin.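 Further: log10 excess protease needed over predicted unfolded state with 0 meaning unfolded.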
As to “DEEQMKKVVEKLVQALRNGNTDEIVRMVKEDVTFKLSDETYRGQEDVRKMAKQLQDKGNKMELKHKEAKGDEAEVVTVWHVGDKTAKLKVRYVVKDDKVEKVQADWSEEVVKAYKHG”, the protease stability score came out at 0.122. Take “DETVEELIKRFMRAIKNNNPDELVRNADKDAKYDIGDKTIHGREQLHDHVEHLRDEMQIDYEVENLKVHNGRADVDVKNNNNHNGRPETKRLRLDVVVHNGKIKDVKFQDTR”: the protease stability score is 0.243. Sequence “DEEEVKKFKEFLDDEKKGNEERAKKLADPNVNVRVGNRQVDGSDNLQKEIRTQKEQARFDMKVDHVEAHNGRIHLEFKLTVEVDGRPKSDTATADAVVTNGHITSLTVQMSEDQVREMDK” registered a protease stability score of -0.238. To “DERELDNASRVATNIATGDEEKVVKLADENAKLNVGDNEVHGTEQATREVKKTQNDLRRNVESFEIDKNGNHARLEATVYQTVNGKPVRYKMSAEVHVHNGRVTKVDVQMDHRLLQRNKK” belongs -0.037.

As for “DEEDEQKLAQTLAEVWKQNDEDQFVRLLDKDARVKVGDNEFRGREEAKRMMQELHRRVDHMEIKSVHAKNGSITATLRAEINGKEWRFILEAVYHNGQVKSVHIRDQ”, the protease stability score turned out to be 1.68.

In turn, “DDQRLRELNDTIAENIQSGDESKLSQLADPNVRLQIGDKEWHGREEMQKAWDELRRSADHIEIRSITAKGDHAVINAVLHHNGRTSQVRFDFSFHNGRIVRVSMHET” gave a protease stability score of 1.48. To “DEEERRRLAKRVIDAMNTGDPDQVVEQIDPNARVEIGDKVYHGRDKAKKAAEERKRQADHVKLKSLEVHGNKVHARLIFNRNGENRTVLLRIKVSNGKALEIRFDHQ” belongs 0.552; to “DEENRKILSEVLQALQEGDEHRVRELMDPNARFQVGDKVITGMDNIKKHLQELKRQIKWHFTMKSISAHDGQARATADAEYNHNGRPQDVRVTFRVVFHNGEVHHFSYDYKP”, 0.583; to “DDHNRAENFLKEVMRAMKNNDPQTLKELADPNVTVEVGDKEIHGQEEFHKWAETLNHNVDSLDIQFKEIRLRPGRAEAIVLITEDHNGRKDRKELNMVARVKGDDIHVVSMHQK”, 0.828. As to “DDEDQKSTAEEIAKALQTGDKDKVTELFDEDARLKIGDTEFHGREQVSRAVHEIKTRVDHMELKDMEFTGDHVRIVYIANVDGHHATFVAHVVLNNGTAKSMSLSVRDERDKESVDK”, the protease stability score was found to be 0.276. Take “DEHARKQFEDLIRALSTGDPERVAQLVDPNAHFQVGDQTIHGREHLMEDVKRRRDKMRMELHVDHVKVDENHLDAIIRVVQDTNGDPDHKKYRLVAQWQNGRVNNQEMQETS”: the protease stability score was determined as 0.541.

“DEKVLKALHDVFRAQEHGDERRAMRNLDPNVKIDVGDEQYHGRESWARRIVQERRDMKVEYHKIDFDDRGDKAKITARYEFTENGDPRHVTIDMEAKATNGKVTTMEQRDDG” had a protease stability score of -0.103. To “DESEQASEVAHEMRHLYRKNDEDRFRELMDENVRARVGDKEYHGREDVLRMFQHEMRTADHMDVQVNDFRKEGDSIIIHADLKYVSNGNDRTRRLVFVLEVNGDTITLLQQQDQ” belongs 0.096. To “DEHRVQTHAEEFMKLLQRGDEKSLADLMDPNASVKIGDKVYHGREQIRHAMRELRERVDHIHVKDIQAQGNHINVDFVLNVNGKHQKYELHVDFSNGRVKSLSMQTS” belongs 1.69; to “DEKRVKELADKIFKDIINGNEEVVRKLGDPDVRYEYLDKKFRGEEAMIFIVQVVKRVGAEVKVERKEVRGDTAKADFRYRKGDTEVKTTAEVIYEGDKLKEARVHLTDEVKKVMTQG”, -0.006; to “DEEKQSTRALQMLHNIATGNEREAQKLMDEDVKLQVGDKHLHGKEQVRHRIHELLRTVDHMDVKDMHYSGDHVSVTAIARVNGQNQHVELSAHVSNGTIKDIRVRYS”, 1.25. “DEEEMKEMLEKWHEAVQKGDSDKVKKLYKPNVEWEDSDTQKQGVEVVIKMLQEVQKKGLEFQVRKAKVEGDTAQAVYDLRFGDKTVTFTVELQAQGGRVDKVRVELNEEAKKVLTKG” returned a protease stability score of 1.19.

Consider “DQEEAEKVMKQWMEAVQKGDEDTVRKLYDPNVEWINADTKEQDVEQFRKAIKKAKDKGVEFQVRKAKVEGDRVQMHYDVRIGNETVTFTVEMDVQGGKVEWLRVKVDEKARKALTKG”, for which the protease stability score came out at 1.22. To “DDDENKNVLKRVVDILRTGDDKKMQKLADPNARLIVGDKTYHGREDMMHWVKELKQDVDHMKVEQIEVRGERARAILVAEVNGQQRRYLLIITVHNGRLKQMEVRSQ” belongs 1.91. To “EEELNKVFEDLLEAEKTGDPDKIMRYFDPNARVSYGDKHIHGREEIRKDADRRKEHMRRDIHDYRIDARGDKVRFTADFTQTHNGQPRRHRMRMEVRVKGDKFRHFRIDEDG” belongs 0.083; to “DDELRHVAERFVQALDEGDPNELKEMADPNARMQVGDKYITGMETFVKHERKKMEKIRIEVVDFKANVNGDKVQVHFDVRFEVNGQPRRYSYVVIFQFRNGRISHVNVQVDPRQLKKNES”, 1.04.

As for “DEKNEDAARKLFNAWKQNDPDHARKLADPNVRFKYGDTQVHGRDQYARELRETNKQMRLEYKHVTIRVKNGNAEVNMNVRYNHNGQPRESTRRMTFKVENGKLVDVDIKTDK”, the protease stability score is 0.133. Turning to “DHDALKRASQFLKAMEQGNEREAVRLVDENARVRYGDKQIHGNKQIRDWVRKMHEQARIRIEVTRVQATGDTVTVTAKVDVDVNGKPQTHDMVFRARVHNGHIKSAEFHFDEEFEKRMNS”, the protease stability score is 1.32. To “DQQDVDRFTEFLEAVERGDEDRLRELMDKDAKQKVGDKTIEGSEKQVNELNDRARRMRIVLEVHDVKVHNGRLEARADLLVNVNGQPVRDDVVVRVQVHNGKITHVEMHFPEEFKRQMRR” belongs 0.858. To “DEEIKRHIKEMMEAISHGDPDQLRRLFDPNVDIRVGDKEITGMEEYLHQLKHKLDSAEFEYKHYEVKVRNGSVRARYEYIVRINGRPNSVTAEVEIKMTNGKAKHAVYRFSDEDKKRLEG” belongs 0.698; to “DEDAVNRYEEFVENLKSNNEHKLSEYLDPNVRLVIGDKTLHGKDNFRRRVRHMTKHMRLQLNYKDLKVQGEEIHVHADVRQTHDGKPQNTHFSASMRVNGDKAKEITIKDDG”, 0.207; to “DEKEVKDNAHDLFRAMQTGDEQEIENLMDENVEAQVGDTTWHGREEAARELVLTQKRYDRVRVDRIQVTGEDVKIDFKLNIDGTKETHILVMRVHNGKIVSMSNETR”, 1.51. In turn, “DEEVEEVIHRLVKALRTNNPDQVNQQLDKDARIKVGDKEIQGRDRYKRTVEQKIQEMNFHIHIKRLEVQGDKVRITAQESSEHNGQPRQRRLKFELRVKNGRVKSAEYHVDK” returned a protease stability score of 0.183. To “DEEDEREVAKQAVDDLVKGNPDRASELADPNVHVEIGDKTYRGQTQMASALKDFRKNVDSVQIDDLKLHGNKADVDMRVDHNGQQQKYHVIVIVHNGRVSELKIKEK” belongs 1.48; to “DEEHQHSLARTLATALRTGDPEKMKDLADKDVKVVVGDKHIKGRKDAKKWAKDWRDRYDHAQVDDVNVQGENVRIVMNVEVDGHNVVVVMTAIIDGDQVKNVKVTARNEEQEKKMKK”, -0.268. To “DEQKERDKAKKIARNFQKNNEHRFEEMMDPNVKFVYGDKEVNGRDTYRKNLHELMTRADSVDIDHVDVRNGRVNVNLVVEVNGNRAEDRVQFTVHNGHIVKVNIDPKVMETAKS” belongs -0.326; to “DESMQKEVHDFLKAQMTNNEDQLRRQADPNARFVYGNKTLHGMDQAAKHLVKLYREATFRIESVSIDAQGDKADIKQTFIVDINGKPDRDTADIKIKFHNGTIKEVNIQVDEEKERKIRS”, -0.218; to “DEDHIKTHAEELMNALSRGDEKRFVDLVDPNARFRIGDKEYKGSEQLHTLMREIHTEVDHIEVRHLRVRNGQVQATIRYDINGKTRSMTIHFEVENGRVKHMEVSSQ”, 1.3.

The sequence “DEDAVKLFHNVQHVIEQGDKDKAVKNFDPNASAKVGDKEVHGMEDWVRTLVKEASQLRIDLKWDDYRVHGDKINMNIELNKEHNGHPSTTRMHIDAHVHNGRVKFVAYNRRP” registered a protease stability score of 0.066.

The values above are taken from the NTF2 design screens of Basanta et al. (2020).
